This data set concerns the target VSV L protein (wild type, rVSV) (Vesicular stomatitis Indiana virus) (UniProt P03523). The following applies: 5' Gppp cap (7mGpppAm when fully methylated).
Sequence of UniProt P03523 (P03523 whole entry): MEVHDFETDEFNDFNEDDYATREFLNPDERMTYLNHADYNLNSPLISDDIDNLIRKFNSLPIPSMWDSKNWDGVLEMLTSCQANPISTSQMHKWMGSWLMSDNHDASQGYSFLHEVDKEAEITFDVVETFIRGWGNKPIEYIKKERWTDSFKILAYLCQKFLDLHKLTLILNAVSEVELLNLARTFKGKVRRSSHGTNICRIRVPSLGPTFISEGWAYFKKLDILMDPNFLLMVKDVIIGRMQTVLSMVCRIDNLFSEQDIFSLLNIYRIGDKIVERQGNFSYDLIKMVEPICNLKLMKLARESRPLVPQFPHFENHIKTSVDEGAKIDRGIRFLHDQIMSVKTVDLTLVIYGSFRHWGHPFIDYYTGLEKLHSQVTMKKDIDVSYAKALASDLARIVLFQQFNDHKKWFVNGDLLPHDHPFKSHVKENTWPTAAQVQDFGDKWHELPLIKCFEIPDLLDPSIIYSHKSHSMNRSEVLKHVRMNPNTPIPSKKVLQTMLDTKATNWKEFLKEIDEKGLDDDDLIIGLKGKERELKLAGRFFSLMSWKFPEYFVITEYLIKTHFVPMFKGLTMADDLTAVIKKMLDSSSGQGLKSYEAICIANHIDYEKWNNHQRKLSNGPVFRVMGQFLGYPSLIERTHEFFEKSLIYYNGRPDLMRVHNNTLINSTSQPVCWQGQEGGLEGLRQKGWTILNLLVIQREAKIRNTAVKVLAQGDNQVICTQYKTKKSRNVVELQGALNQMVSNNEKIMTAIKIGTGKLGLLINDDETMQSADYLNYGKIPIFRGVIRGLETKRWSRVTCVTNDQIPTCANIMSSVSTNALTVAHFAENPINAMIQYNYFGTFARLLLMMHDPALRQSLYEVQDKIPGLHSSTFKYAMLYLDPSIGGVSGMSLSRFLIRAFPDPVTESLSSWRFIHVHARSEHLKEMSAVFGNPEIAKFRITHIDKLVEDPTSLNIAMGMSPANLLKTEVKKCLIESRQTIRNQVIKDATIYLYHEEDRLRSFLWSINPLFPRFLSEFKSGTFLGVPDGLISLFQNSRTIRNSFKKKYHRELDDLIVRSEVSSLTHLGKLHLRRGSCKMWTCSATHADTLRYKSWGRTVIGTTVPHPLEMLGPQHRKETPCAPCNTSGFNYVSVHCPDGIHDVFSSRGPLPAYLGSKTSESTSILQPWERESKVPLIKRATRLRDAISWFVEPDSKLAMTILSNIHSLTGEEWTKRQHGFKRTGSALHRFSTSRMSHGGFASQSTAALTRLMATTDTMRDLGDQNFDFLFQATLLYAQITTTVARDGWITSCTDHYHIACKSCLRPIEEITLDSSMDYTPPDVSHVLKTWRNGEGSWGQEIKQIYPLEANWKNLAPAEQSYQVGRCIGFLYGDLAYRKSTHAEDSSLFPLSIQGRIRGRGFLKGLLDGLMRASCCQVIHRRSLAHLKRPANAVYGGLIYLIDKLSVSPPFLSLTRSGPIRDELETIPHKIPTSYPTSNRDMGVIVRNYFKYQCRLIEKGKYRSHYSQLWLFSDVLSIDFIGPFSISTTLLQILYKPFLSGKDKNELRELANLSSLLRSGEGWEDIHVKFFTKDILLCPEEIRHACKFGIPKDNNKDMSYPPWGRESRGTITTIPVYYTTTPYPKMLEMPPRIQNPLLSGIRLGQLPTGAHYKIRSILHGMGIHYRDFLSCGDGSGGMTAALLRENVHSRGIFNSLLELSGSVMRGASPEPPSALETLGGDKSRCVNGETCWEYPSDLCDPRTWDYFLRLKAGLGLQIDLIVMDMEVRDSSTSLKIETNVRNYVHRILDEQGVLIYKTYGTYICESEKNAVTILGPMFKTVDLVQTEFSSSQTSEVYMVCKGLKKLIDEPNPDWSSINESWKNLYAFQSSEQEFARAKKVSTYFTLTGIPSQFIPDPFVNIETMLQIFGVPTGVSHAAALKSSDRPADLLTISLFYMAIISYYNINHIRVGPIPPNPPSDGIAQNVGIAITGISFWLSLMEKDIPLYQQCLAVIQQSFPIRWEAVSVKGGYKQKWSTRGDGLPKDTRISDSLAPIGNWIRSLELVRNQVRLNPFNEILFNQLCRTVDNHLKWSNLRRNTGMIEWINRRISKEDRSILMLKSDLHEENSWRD

With AACAG, the activity (% 7mGp of released cap) worked out at 97.

For the origin of these results see patent US8034355.
